The values that follow come from US20250092426, “CAS ENDONUCLEASES AND RELATED METHODS” (Flagship Pioneering Innovations VII, LLC, published 2025).

For this data set, the target named is T1, CasEnd-21 (synthetic construct).
T1 chain: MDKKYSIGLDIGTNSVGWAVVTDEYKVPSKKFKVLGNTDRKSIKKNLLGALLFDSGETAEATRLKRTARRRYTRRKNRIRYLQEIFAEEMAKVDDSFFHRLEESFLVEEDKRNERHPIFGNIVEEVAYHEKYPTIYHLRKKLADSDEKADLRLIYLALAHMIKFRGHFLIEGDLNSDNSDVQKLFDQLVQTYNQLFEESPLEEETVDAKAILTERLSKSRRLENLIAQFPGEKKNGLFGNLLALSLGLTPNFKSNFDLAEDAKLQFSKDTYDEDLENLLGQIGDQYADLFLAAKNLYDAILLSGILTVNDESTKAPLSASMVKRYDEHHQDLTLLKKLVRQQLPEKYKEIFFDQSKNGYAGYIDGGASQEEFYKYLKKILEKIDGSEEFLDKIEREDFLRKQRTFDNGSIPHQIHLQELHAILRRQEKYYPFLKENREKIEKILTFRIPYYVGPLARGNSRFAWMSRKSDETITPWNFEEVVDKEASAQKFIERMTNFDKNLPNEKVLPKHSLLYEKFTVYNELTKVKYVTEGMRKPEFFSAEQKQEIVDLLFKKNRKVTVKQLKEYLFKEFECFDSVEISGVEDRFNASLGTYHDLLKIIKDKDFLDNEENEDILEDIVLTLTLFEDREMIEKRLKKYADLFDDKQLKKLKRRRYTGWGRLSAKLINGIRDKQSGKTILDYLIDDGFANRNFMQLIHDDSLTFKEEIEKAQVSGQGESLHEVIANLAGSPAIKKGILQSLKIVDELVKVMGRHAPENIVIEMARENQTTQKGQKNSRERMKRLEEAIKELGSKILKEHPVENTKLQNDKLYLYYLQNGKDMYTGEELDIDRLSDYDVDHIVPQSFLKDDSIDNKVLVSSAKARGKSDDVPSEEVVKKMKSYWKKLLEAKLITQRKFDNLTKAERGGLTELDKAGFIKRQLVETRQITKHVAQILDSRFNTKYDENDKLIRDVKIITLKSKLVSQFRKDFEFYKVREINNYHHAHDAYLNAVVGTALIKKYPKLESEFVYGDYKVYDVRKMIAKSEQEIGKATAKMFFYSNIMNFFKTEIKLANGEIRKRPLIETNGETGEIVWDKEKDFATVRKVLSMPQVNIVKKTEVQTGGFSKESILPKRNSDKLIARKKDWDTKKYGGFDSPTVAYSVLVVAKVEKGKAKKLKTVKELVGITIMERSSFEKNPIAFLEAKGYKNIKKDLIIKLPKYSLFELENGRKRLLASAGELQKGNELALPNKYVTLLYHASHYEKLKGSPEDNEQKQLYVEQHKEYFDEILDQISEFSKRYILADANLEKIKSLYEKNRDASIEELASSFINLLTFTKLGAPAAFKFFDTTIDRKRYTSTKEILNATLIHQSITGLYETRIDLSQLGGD
Put plainly: cell_activity; +++; HEK293T; PAM not stated. The gist of the method: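 Editing activity was scored as the fraction of GFP+ cells on day 4 by flow cytometry. BFP-expressing HEK293T cells (250,000) received by nucleofection 200 ng plasmid for the RT-Cas fusion protein and 200 ng template RNA plasmid designed to convert BFP to GFP.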

B1: BFP-to-GFP template RNA ; BFP reporter protospacer (ssRNA ; dsDNA)
RNA: GCCGAAGCACUGCACGCCGUGUUUUAGAGCUAGAAAUAGCAAGUUAAAAUAAGGCUAGUCCGUUAUCAACUUGAAAAAGUGGCACCGAGUCGGUGCACCCUGACGUACGGCGUGCAGUGCUU
DNA 1: GCCGAAGCACTGCACGCCGT
DNA 2: ACGGCGTGCAGTGCTTCGGC
In the case of B1, the activity is ≥ 100 % of reference.
